The text below walks through data of US6306273A, “Methods and compositions for conducting processes in microfluidic devices” (Aclara BioSciences, Inc., priority 1999, dated 2001).

Ends that are not written are not given here. * marks the point of attachment. FITC = O=C1OC2(c3ccc(O)cc3Oc3cc(O)ccc32)c2ccc(NC(=S)*)cc21

The data set is described as follows: Separation of FITC labeled peptides in dynamically coated chip; charge from migration time relative to EOF. It is filed as physicochemical. The conditions noted are these: 0.05% ammonium guar; determined by migration time relative to EOF. The text has this: The coating procedure and the separation conditions were the same as described previously. The surface modifying polymer was 0.05% ammonium guar. Three FITC labeled peptides (obtained from AnaSpec, San Jose, Calif.), which differed by one charge from each other (FITC-KKAA, FITC-KKKA and FITC-KKKK), were separated and detected 0.5 cm from the injection point on the anodal side. […] FITC-KKKA and FITC-KKKK migrated electrophoretically against the EOF. The net charge of FITC-KKKK was greater than +1.

In the case of “FITC-KKKA: FITC labeled peptide, SEQ ID NO:2, from AnaSpec ({FITC}-KKKA)”, the net charge result is recorded as “positive charged”.

On to “FITC-KKAA: FITC labeled peptide, SEQ ID NO:1, from AnaSpec ({FITC}-KKAA)”, for which the net charge result was “negatively charged”.
